The record followed here is paper PMC2853022.

The target in the series is NS3h (helicase domain of HCV NS3) (Hepatitis C virus, Con 1b replicon …, UniProt Q9WMX2 1192-1657). Briefly: stopped-flow fluorescence.
Sequence of NS3h (helicase domain of HCV NS3) (Q9WMX2 1192-1657): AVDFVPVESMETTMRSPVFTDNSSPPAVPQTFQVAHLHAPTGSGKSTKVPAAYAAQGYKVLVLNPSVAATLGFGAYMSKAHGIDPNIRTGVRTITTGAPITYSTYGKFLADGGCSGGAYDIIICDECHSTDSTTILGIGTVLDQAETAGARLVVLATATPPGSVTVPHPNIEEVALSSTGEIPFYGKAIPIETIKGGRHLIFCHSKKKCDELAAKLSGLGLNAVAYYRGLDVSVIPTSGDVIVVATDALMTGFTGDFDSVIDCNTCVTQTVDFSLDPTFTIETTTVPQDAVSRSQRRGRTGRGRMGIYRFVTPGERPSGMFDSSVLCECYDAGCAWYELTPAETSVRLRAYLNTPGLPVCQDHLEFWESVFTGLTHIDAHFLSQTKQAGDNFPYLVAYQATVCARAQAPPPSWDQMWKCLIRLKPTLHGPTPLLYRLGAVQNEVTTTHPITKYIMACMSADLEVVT

B1: 37:22-mer partial duplex (dsDNA)
DNA 1: GACTGACGCTAGGCTGACAGGATTTTTTTTTTTTTTT
DNA 2: TCCTGTCAGCCTAGCGTCAGTC
On to B1, for which the binding result is “binds”.
